Consider one protein from PMC4783942, “Microwave-Assisted Synthesis of Glycoconjugates by Transgalactosylation with Recombinant Thermostable β-Glycosidase from Pyrococcus” (International Journal of Molecular Sciences, 2016).

Substrate in this series: CC(=O)N[C@@H]1[C@@H](O)[C@H](O)[C@@H](CO)O[C@H]1NC(=S)NCCNC(=O)OC(C)(C)C
In words: transgalactosylation kinetics, HPLC. The following applies: acceptor substrate varied, donor lactose, 85 °C thermal heating, citrate-phosphate buffer pH 5.5. It counts as biochemical, Pyrococcus woesei.

B1: β-glycosidase from Pyrococcus woesei (DSM 3773) (Pyrococcus woesei; T436I) (protein)
chain: MFPEKFLWGVAQSGFQFEMGDKLRRNIDTNTDWWHWVRDKTNIEKGLVSGDLPEEGINNYELYEKDHEIARKLGLNAYRIGIEWSRIFPWPTTFIDVDYSYNESYNLIEDVKITKDTLEELDEIANKREVAYYRSVINSLRSKGFKVIVNLNHFTLPYWLHDPIEARERALTNKRNGWVNPRTVIEFAKYAAYIAYKFGDIVDMWSTFNEPMVVVELGYLAPYSGFPPGVLNPEAAKLAILHMINAHALAYRQIKKFDTEKADKDSKEPAEVGIIYNNIGVAYPKDPNDSKDVKAAENDNFFHSGLFFEAIHKGKLNIEFDGETFIDAPYLKGNDWIGVNYYTREVVTYQEPMFPSIPLITFKGVQGYGYACRPGTLSKDDRPVSDIGWELYPEGMYDSIVEAHKYGVPVYVTENGIADSKDILRPYYIASHIKMIEKAFEDGYEVKGYFHWALTDNFEWALGFRMRFGLYEVNLITKERIPREKSVSIFREIVANNGVTKKIEEELLRG
notes: N-terminal His6-tag (pETDuet-1, tag kept), E. coli Rosetta2(DE3)pLysS; cloned gene differs from AF043283.1 by T436I, as in P. furiosus E08095.1 / AAC44387.1
By Km is commonly meant the concentration of substrate that gives half-maximal velocity. Regarding B1, the Michaelis-Menten constant (Km) is 15.6 mM.
